Assay results as given in patent US20260209316A1 (US Dept. of Health and Human Services, published 2026).
Positions count from the first letter of the chain named.

Experiments:
[1] = target: T1, full-length Sudan GP (GPFL) (Sudan virus (SUDV), UniProt Q7T9D9 33-650); assay: ELISA on coated GP
T1 construct: also called Sudan GPFL; GP(S)FL
T1 sequence: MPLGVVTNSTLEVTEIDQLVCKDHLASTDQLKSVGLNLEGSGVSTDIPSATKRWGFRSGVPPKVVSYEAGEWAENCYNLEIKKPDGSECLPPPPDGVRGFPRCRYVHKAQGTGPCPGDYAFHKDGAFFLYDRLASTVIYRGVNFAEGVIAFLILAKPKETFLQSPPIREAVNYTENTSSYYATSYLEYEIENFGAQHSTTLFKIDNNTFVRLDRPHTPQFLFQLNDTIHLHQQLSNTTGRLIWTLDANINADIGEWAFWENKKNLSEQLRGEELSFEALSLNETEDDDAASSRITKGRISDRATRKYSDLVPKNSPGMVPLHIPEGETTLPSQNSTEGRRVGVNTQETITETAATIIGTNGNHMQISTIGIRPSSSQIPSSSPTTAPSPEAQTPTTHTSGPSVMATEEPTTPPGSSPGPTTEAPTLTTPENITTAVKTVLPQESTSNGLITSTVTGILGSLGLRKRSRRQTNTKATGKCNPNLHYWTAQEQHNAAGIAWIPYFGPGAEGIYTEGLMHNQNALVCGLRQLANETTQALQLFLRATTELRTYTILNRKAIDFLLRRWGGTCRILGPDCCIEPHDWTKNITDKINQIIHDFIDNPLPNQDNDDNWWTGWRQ

[2] = target: T2, full-length Zaire GP (GPFL) (Ebola (Zaire) virus (EBOV), UniProt Q05320 33-632); assay: ELISA on coated GP
T2 construct: also called Zaire GPFL; GP(Z)FL
T2 sequence: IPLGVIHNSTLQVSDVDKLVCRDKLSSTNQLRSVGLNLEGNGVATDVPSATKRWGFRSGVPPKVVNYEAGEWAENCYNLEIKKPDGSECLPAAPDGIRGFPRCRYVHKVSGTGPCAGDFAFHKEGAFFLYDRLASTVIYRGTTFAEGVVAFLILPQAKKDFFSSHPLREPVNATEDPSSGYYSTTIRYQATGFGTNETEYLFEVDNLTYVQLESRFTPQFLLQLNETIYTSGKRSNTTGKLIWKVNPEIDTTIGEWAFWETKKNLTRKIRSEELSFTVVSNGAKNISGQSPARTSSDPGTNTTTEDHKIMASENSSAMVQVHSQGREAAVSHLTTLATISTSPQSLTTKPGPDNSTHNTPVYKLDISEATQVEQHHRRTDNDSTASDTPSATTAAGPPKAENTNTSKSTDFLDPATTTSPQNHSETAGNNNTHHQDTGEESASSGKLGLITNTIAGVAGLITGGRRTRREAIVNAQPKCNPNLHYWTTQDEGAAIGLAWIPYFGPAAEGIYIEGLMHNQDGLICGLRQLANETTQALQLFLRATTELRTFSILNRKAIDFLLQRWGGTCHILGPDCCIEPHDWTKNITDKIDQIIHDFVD

[3] = target: T3, SUDV GP on pseudotyped lentiviral vector (Sudan virus (SUDV), UniProt Q7T9D9 33-676); assay: cell-based or functional assay
T3 sequence: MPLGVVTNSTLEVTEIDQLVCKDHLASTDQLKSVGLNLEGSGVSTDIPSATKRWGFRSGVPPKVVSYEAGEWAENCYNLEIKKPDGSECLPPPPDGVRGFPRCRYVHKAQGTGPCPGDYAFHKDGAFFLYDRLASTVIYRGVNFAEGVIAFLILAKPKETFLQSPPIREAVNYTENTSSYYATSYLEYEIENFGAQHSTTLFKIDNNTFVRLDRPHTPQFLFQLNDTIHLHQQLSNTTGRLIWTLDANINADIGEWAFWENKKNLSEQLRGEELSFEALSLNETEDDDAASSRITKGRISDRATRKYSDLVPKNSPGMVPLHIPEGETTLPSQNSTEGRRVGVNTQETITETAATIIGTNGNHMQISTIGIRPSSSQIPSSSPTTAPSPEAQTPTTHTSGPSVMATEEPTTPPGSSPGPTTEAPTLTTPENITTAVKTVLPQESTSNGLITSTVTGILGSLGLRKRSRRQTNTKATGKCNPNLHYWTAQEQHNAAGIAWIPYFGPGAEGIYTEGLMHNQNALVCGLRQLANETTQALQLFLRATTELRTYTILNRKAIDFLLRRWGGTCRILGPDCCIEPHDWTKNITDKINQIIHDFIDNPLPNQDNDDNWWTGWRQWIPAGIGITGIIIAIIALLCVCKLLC

[4] = target: T4, EBOV GP on pseudotyped lentiviral vector (Ebola (Zaire) virus (EBOV), UniProt Q05320 33-676); assay: cell-based or functional assay
T4 sequence: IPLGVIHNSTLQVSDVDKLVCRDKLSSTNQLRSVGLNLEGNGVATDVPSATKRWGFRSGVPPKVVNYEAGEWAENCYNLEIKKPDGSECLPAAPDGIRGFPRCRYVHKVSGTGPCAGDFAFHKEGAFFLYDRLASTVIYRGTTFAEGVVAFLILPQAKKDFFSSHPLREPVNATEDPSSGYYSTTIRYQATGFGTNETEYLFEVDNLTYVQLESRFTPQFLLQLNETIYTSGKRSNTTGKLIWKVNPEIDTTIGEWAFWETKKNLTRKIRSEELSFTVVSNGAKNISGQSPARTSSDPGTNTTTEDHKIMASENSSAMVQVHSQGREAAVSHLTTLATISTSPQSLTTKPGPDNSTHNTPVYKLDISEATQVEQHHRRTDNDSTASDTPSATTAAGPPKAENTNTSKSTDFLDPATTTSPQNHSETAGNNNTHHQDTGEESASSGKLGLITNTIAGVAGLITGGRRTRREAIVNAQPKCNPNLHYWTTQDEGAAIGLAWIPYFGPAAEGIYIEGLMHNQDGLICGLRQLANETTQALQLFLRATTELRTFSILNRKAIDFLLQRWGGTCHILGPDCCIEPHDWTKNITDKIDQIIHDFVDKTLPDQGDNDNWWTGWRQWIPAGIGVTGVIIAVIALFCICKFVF

[5] = target: T1, full-length Sudan GP (GPFL); assay: BLI, Fab, pH 5.3
[6] = target: T1, full-length Sudan GP (GPFL); assay: BLI, Fab, pH 7.4
[7] = target: T1, full-length Sudan GP (GPFL); assay: BLI, Fab, pH 5.3; remark: listed apart in the source
[8] = target: T1, full-length Sudan GP (GPFL); assay: BLI, Fab, pH 7.4; remark: listed apart in the source
[9] = target: T2, full-length Zaire GP (GPFL); assay: BLI, Fab, pH 7.4

B1: antibody 206L (antibody, V domains shown)
VH: EVQLVESGGGVVQPGGSLRLSCAASGFTFDDYAMHWVRQAPGKGLEWVSGISWSGGNTYYADSVKGRFTVSRENAKNSLYLQMNRLRAEDTAFYNCARTSQGGAVVFSAPNYWGQGVLVTVSS
VL: QSVLTQAPSVSGAPGQRVTISCTGSSSNIGGYYVQWYQQLPGRAPKLLIYENNKRPSGVSDRFSGSRSASSASLTITGLQSEDEADYYCQSYDSRLNGYIFGGGTRLTVL
EC50 [1]: 2.58 µg/mL | EC50 [2]: 0.001 µg/mL | IC50, microneutralization of GP-pseudotyped lentiviral vector on HEK293 cells [3]: > 10 µg/mL | IC50, microneutralization of GP-pseudotyped lentiviral vector on HEK293 cells [4]: > 10 µg/mL

B2: antibody 310L (antibody, V domains shown)
VH: EMQLVESGGGLVQPGGSLRLSCAASGFTFDAYAMHWVRQRPGKGLEWISGIIWSGRTTYYADSVKGRFTFSRDNSKNSLYLEMNSLKPEDTALYYCAKDSWNYGVYNSLDVWGRGILVTVSS
VL: QSVLTQPPSVSGAPGQRVTISCTGSSSNVGPHYVSWYQHLPGTTPKLLIFQDNKRPSGVSDRFSGSKSASSASLTITGLQTEDEADYYCLSYDSSLNVYIFGSGTRLTVL
EC50 [1]: 0.04 µg/mL | EC50 [2]: 0.01 µg/mL | IC50, microneutralization of GP-pseudotyped lentiviral vector on HEK293 cells [3]: > 10 µg/mL | IC50, microneutralization of GP-pseudotyped lentiviral vector on HEK293 cells [4]: > 10 µg/mL

B3: antibody 191L (antibody, V domains shown)
VH: EVQLVESGGGLVQPGGSLRLSCAASGFTFSSYGIHWVRQAPGKGLEWVAIISYDGNKKFHADSVKDRFTISRDNSKNMLYLQMNNLKLEDTAVYYCARAYDSGYFAGSVFYYWGQGVLVTVSS
VL: EVVFTQPHSVSGSPGQTVTISCTRSSGSIDSEYVQWYQQRPGNAPTTVIYKDNQRPSGVPDRFSGSIDSSSNSASLAISGLKSEDEADYYCQSADGNYHPVFGEGTRLTVL
EC50 [1]: 0.02 µg/mL | EC50 [2]: 0.01 µg/mL | IC50, microneutralization of GP-pseudotyped lentiviral vector on HEK293 cells [3]: > 10 µg/mL | IC50, microneutralization of GP-pseudotyped lentiviral vector on HEK293 cells [4]: > 10 µg/mL

B4: Fab generated from 291S (Fab, V domains shown)
VH: QVQLQESGPGLVKPSQTLSLTCTVSGGSFSSGFYWSWIRQRPGKGLEWVGYTYYSGSTYYNPSLQSRVTISVDTSKNQFSLNLSSVTAADTAVYHCARADYGGLFDYWGQGILVTVSS
VL: QSVLTQPSSLSASPGASASLTCTLRSGINVGTYRIFWYQQKPGSPPQFLLRYNSDSDKQQGSGVPSRFSGSKDASANAGILLISGLQSEDEADYYCMIWHTSAWVFGGGTKLTVL
Kd [5]: 4.27 nM | koff [5]: 0.00011 s⁻¹ | kon [5]: 25700 M⁻¹ s⁻¹ | Kd [6]: 2.97 nM | koff [6]: 0.000131 s⁻¹ | kon [6]: 44200 M⁻¹ s⁻¹

B5: Fab generated from 545S (Fab, V domains shown)
VH: QVQLQESGPGLVKPSQTLSLTCTVSGGSISRAGSYWSWIRQHPGKGLEWIGYISYSGSTYYNPSLESRVTMSLDTSKSQFSLKLSSVTAADTAVYYCAREDRSGFYGLDVWGQGTTVTVSS
VL: B4 VL with S17T, G31D, F36Y, F48Y, N53K, Q59H, E89A, T101S, S102G, L115Q
notes: also called 545S Fab
Kd [5]: 1.97 nM | koff [5]: 0.000147 s⁻¹ | kon [5]: 74300 M⁻¹ s⁻¹ | Kd [6]: 1.26 nM | koff [6]: 0.000125 s⁻¹ | kon [6]: 99200 M⁻¹ s⁻¹

B6: antibody 231L (antibody, V domains shown)
VH: EVQLVESGGGLVQPGGSLRLSCAASAFTFDDYAMHWVRQAPGKGLEWVSGITWSGLSTYYADSVKGRFTISRDNAKNSLYLQMNSLRVEDTALYYCAKSGNNSPFSGLDSWGQGAVVTVSS
VL: QSVLTQPPSVSGAPGQRVTVSCTGSSSNIGAGSYVQWYQQLPGTAPKLLIYENNKRPSGVSDRFSGSKSGTSASLTITGLQSEDEADYYCQSYDSSLNAYIFGAGTRLTVL
EC50 [1]: 0.4 µg/mL | EC50 [2]: 0.002 µg/mL | IC50, microneutralization of GP-pseudotyped lentiviral vector on HEK293 cells [3]: > 10 µg/mL | IC50, microneutralization of GP-pseudotyped lentiviral vector on HEK293 cells [4]: > 10 µg/mL

B7: Fab generated from 316L (Fab, V domains shown)
VH: EERLVESGGGLVQPGGSLRLSCAASGFTFGDYAMHWVRQVPGKSLEWLSGISWSGYTTYSADSVKGRFTISRDNAKNSLYLQMNRLRPEDTGLYYCVTLIGAIGIKDSLDVWGRGVLVTVSS
VL: QSVLTQPPSVSGAPGQRVTVSCSGSSSNIGAGNYVQWYQQLPGTAPKVLIYQTEKRPSGTSDRFSGSKSDTSASLTINGLQSEDEADYYCQVYDSNLNGWVFGGGTRLTVL
notes: also called 316L Fab
Kd [7]: 1.26 nM | koff [7]: 0.000139 s⁻¹ | kon [7]: 110000 M⁻¹ s⁻¹ | Kd [8]: 1.16 nM | koff [8]: 0.000157 s⁻¹ | kon [8]: 135000 M⁻¹ s⁻¹ | Kd [9]: 38.1 nM | koff [9]: 0.00263 s⁻¹ | kon [9]: 69000 M⁻¹ s⁻¹

B8: Fab generated from 380L (Fab, V domains shown)
VH: EVQLVESGGGLVQPGGSLTLSCAASGFTFGDYVMHWVRQVPGRGLEWLSAVSWSGYTTYSADSVKGRFTISRDNAKNSLYLQMSRLGTADTGLYYCVTLIGAIGIRDSFDAWGRGVLVTVSS
VL: B7 VL with V10M, S23T, E54D, T60I, D70G, N78S, N96S
notes: also called 380L Fab
Kd [7]: 3.87 nM | koff [7]: 0.000326 s⁻¹ | kon [7]: 84200 M⁻¹ s⁻¹ | Kd [8]: 2.85 nM | koff [8]: 0.00029 s⁻¹ | kon [8]: 101000 M⁻¹ s⁻¹ | Kd [9]: 19.8 nM | koff [9]: 0.00148 s⁻¹ | kon [9]: 63000 M⁻¹ s⁻¹

B9: antibody 232L (antibody, V domains shown)
VH: KSQLVESGGGLVQPGGSLRLSCAASGFTFDAYAMHWVRQAPGEGLEWVTAISWSGSSTYYADSVKGRFTFSRDNAKNSLYLEMNSLRADDTAFYYCVKGGVYNWFDVWGPGVLVTVSS
VL: QSVLTQPPSVSGAPGQRVTISCTGSRSNIGGYYVSWYQQFPGTTPKLLIYQDNKRPSGVSDRFSGSKSGTSASLTITGLQTEDEADYYCLSYDSSLNGWVFGGGTRLTVL
EC50 [1]: 0.09 µg/mL | EC50 [2]: 0.08 µg/mL | IC50, microneutralization of GP-pseudotyped lentiviral vector on HEK293 cells [3]: > 10 µg/mL | IC50, microneutralization of GP-pseudotyped lentiviral vector on HEK293 cells [4]: > 10 µg/mL
